Source: patent publication US20120121587A1 (Chugai, published 2012)

Target: T1, Human recombinant AXL-FND1 (GST-FND1), from pET-41b(+) (human, UniProt P30530 225-331)
T1 construct: Expressed in E. coli, purified on Glutathione Sepharose; analyte in all Biacore measurements; GST put first by the usual layout of pET-41; not shown: GST-tag of vector pET-41b(+) (Novagen)
T1 sequence (looked up): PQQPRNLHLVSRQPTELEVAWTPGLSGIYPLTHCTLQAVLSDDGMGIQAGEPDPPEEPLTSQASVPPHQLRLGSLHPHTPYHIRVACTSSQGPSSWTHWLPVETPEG
Test: SPR (Biacore T100): antibody captured on Protein A, GST-FND1 as analyte
Experimental: Kinetic analyses of antigen-antibody reactions of humanized AXL antibodies were carried out using Biacore T100 (BIACORE). rec-Protein A (Zymed) (hereinafter, Protein A) was immobilized onto a sensor chip, various antibodies were bound to it, then an antigen as the analyte was flushed to measure the antibody-antigen interaction. Human recombinant AXL-FND1 (prepared in 2-2; hereinafter referred to as GST-FND1) prepared at various concentrations was used as the antigen. From the sensorgrams obtained through the measurements, kinetic parameters, namely binding rate constant kₐ (1/Ms) and dissociation rate constant kd (1/s), were calculated, and Kd (M) was calculated based on these values. Biacore T100 Evaluation Software (BIACORE) was used to calculate each of the parameters.
The sensor chips were produced by immobilizing approximately 3000 RU of Protein A onto CM5 (BIACORE) by amine coupling. Using the produced sensor chip, kinetic analyses were carried out on the interaction between the Protein A-bound antibodies and GST-FND1. HBS-EP+ was used as the running buffer, and the flow rate was set to 30 μL/min. Each antibody was prepared at 1 μg/mL using the running buffer, and was subjected to binding with Protein A for two minutes. GST-FND1 as the analyte was prepared at 0.5 and 2.0 μg/mL using HBS-EP+. Measurements were carried out by first binding the various humanized AXL antibodies, chimeric AXL antibodies, or mouse AXL antibodies of interest to Protein A, then applying an analyte solution to them for a two-minute interaction, and then switching to HBS-EP+ (BIACORE) for a two-minute measurement of the dissociation phase. After completion of measurement of the dissociation phase, 30 μL of 10 mM glycine-HCl (pH 2.0) was used for washing to regenerate the sensor chip. Such binding, dissociation, and regeneration were defined as one cycle of analysis. All experiments were performed at 25° C.
Affinity evaluation of each of the variants by Biacore was carried out by the method of Example 2.

Row | Binder | Kd [nM]
1 | H9/L1 (antibody, human IgG1, kappa) heavy: not shown light: DVVMTQSPLSLPVTLGQPASISCQSSQNIVHTNGNTYLEWYQQKPGKAPELLIYKVSNRFSGVPDRFSGSGSGTDFTLKISRVEAEDVGVYYCFQGSHIPFTFGQGTKLEIKRTVAAPSVFIFPPSDEQLKSGTASVVCLLNNFYPREAKVQWKVDNALQSGNSQESVTEQDSKDSTYSLSSTLTLSKADYEKHKVYACEVTHQGLSSPVTKSFNRGEC | 2.49
2 | H9/L25 (antibody, human IgG1, kappa) heavy: not shown light: DVVMTQSPLSLPVTLGRPASISCRSSQNIVHTNGNTYLEWYQQKPGKAPELLIYKVSNRFSGVPDRFSGSGSGTDFTLKISRVEAEDVGVYYCFQGSHIPFTFGQGTKLEIKRTVAAPSVFIFPPSDEQLKSGTASVVCLLNNFYPREAKVQWKVDNALQSGNSQESVTEQDSKDSTYSLSSTLTLSKADYEKHKVYACEVTHQGLSSPVTKSFNRGEC | 3.54
3 | H9/L11 (antibody, human IgG1, kappa) heavy: not shown light: DVVMTQSPLSLPVTLGQPASISCQSSQNIVHTNGNTYLEWYQQKPGKAPELLIYKVSNRFSGVPDRFSGSGSGTDFTLKISRVEAEDVGVYYCFQGSHIPFTFGQGTKVEIERTVAAPSVFIFPPSDEQLKSGTASVVCLLNNFYPREAKVQWKVDNALQSGNSQESVTEQDSKDSTYSLSSTLTLSKADYEKHKVYACEVTHQGLSSPVTKSFNRGEC | 2.4
4 | H9/L12 (antibody, human IgG1, kappa, V domains shown) VH: QVTLKESGPVLVKPTETLTLTCTVSGFSLSSFGVDWVRQAPGKGLEWMGVIWGGGSTNYNSALKSRLTISKDNSKSQVVLTMTNMDPVDTATYYCAGEGSKYGAWFAYWGQGTLVTVSS VL: DVVMTQSPLSLPVTLGQPASISCQSSQNIVHTNGNTYLEWYQQKPGEAPELLIYKVSNRFSGVPDRFSGSGSGTDFTLKISRVEAEDVGVYYCFQGSHIPFTFGQGTKVEIER | 2.55
5 | H9/L4 (antibody, human IgG1, kappa, V domains shown) VH: QVTLKESGPVLVKPTETLTLTCTVSGFSLSSFGVDWVRQAPGKGLEWMGVIWGGGSTNYNSALKSRLTISKDNSKSQVVLTMTNMDPVDTATYYCAGEGSKYGAWFAYWGQGTLVTVSS VL: DVVMTQSPLSLPVTLGQPASISCRSSQNIVHTNGNTYLEWYQQKPGEAPELLIYKVSNRFSGVPDRFSGSGSGTDFTLKISRVEAEDVGVYYCFQGSHIPFTFGQGTKLEIKR | 2.64
6 | H18/L0 (antibody, human IgG1, kappa, V domains shown) VH: QVTLKESGPVLVKPTETLTLTCTVSGFSLSEFGVDWVRQAPGKGLEWMGVIWGGGSTNYNSALKSRLTISKDNSKSQVVLTMTNMDPVDTATYYCAGEGSKYGAWFAYWGQGTLVTVSS VL: DVVMTQSPLSLPVTLGQPASISCRSSQNIVHTNGNTYLEWYQQKPGKAPELLIYKVSNRFSGVPDRFSGSGSGTDFTLKISRVEAEDVGVYYCFQGSHIPFTFGQGTKLEIKR | 4.31
7 | H9/L37 (antibody, human IgG1, kappa) heavy: not shown light: DVVMTQSPLSLPVTLGRPASISCRSSRNIVHTNGNTYLEWYQQKPGKAPKLLIYKVSNRFSGVPDRFSGSGSGTDFTLKISRVEAEDVGVYYCFQGSHIPFTFGRGTKLEIKRTVAAPSVFIFPPSDEQLKSGTASVVCLLNNFYPREAKVQWKVDNALQSGNSQESVTEQDSKDSTYSLSSTLTLSKADYEKHKVYACEVTHQGLSSPVTKSFNRGEC | 2.69
8 | H19/L0 (antibody, human IgG1, kappa, V domains shown) VH: QVTLKESGPVLVKPTETLTLTCTVSGFSLSSFGVDWVRQAPGQGLEWMGVIWGGGSTNYNSALKSRLTISKDNSKSQVVLTMTNMDPVDTATYYCAGEGSKYGAWFAYWGQGTLVTVSS VL: DVVMTQSPLSLPVTLGQPASISCRSSQNIVHTNGNTYLEWYQQKPGKAPELLIYKVSNRFSGVPDRFSGSGSGTDFTLKISRVEAEDVGVYYCFQGSHIPFTFGQGTKLEIKR | 2.63
9 | H9/L5 (antibody, human IgG1, kappa, V domains shown) VH: QVTLKESGPVLVKPTETLTLTCTVSGFSLSSFGVDWVRQAPGKGLEWMGVIWGGGSTNYNSALKSRLTISKDNSKSQVVLTMTNMDPVDTATYYCAGEGSKYGAWFAYWGQGTLVTVSS VL: DVVMTQSPLSLPVTLGQPASISCRSSQNIVHTNGNTYLEWYQQKPGQAPELLIYKVSNRFSGVPDRFSGSGSGTDFTLKISRVEAEDVGVYYCFQGSHIPFTFGQGTKLEIKR | 2.53
10 | H9/L27 (antibody, human IgG1, kappa, V domains shown) VH: QVTLKESGPVLVKPTETLTLTCTVSGFSLSSFGVDWVRQAPGKGLEWMGVIWGGGSTNYNSALKSRLTISKDNSKSQVVLTMTNMDPVDTATYYCAGEGSKYGAWFAYWGQGTLVTVSS VL: DVVMTQSPLSLPVTLGQPASISCRSSRNIVHTNGNTYLEWYQQKPGKAPELLIYKVSNRFSGVPDRFSGSGSGTDFTLKISRVEAEDVGVYYCFQGSHIPFTFGQGTKLEIKR | 3.07
11 | H9/L31 (antibody, human IgG1, kappa) heavy: not shown light: DVVMTQSPLSLPVTLGQPASISCRSSRNIVHTNGNTYLEWYQQKPGKAPKLLIYKVSNRFSGVPDRFSGSGSGTDFTLKISRVEAEDVGVYYCFQGSHIPFTFGQGTKLEIKRTVAAPSVFIFPPSDEQLKSGTASVVCLLNNFYPREAKVQWKVDNALQSGNSQESVTEQDSKDSTYSLSSTLTLSKADYEKHKVYACEVTHQGLSSPVTKSFNRGEC | 2.46
12 | H9/L13 (antibody, human IgG1, kappa, V domains shown) VH: QVTLKESGPVLVKPTETLTLTCTVSGFSLSSFGVDWVRQAPGKGLEWMGVIWGGGSTNYNSALKSRLTISKDNSKSQVVLTMTNMDPVDTATYYCAGEGSKYGAWFAYWGQGTLVTVSS VL: DVVMTQSPLSLPVTLGQPASISCQSSQNIVHTNGNTYLEWYQQKPGQAPELLIYKVSNRFSGVPDRFSGSGSGTDFTLKISRVEAEDVGVYYCFQGSHIPFTFGQGTKVEIER | 2.45
13 | H9/L3 (antibody, human IgG1, kappa, V domains shown) VH: QVTLKESGPVLVKPTETLTLTCTVSGFSLSSFGVDWVRQAPGKGLEWMGVIWGGGSTNYNSALKSRLTISKDNSKSQVVLTMTNMDPVDTATYYCAGEGSKYGAWFAYWGQGTLVTVSS VL: DVVMTQSPLSLPVTLGQPASISCQSSENIVHTNGNTYLEWYQQKPGKAPELLIYKVSNRFSGVPDRFSGSGSGTDFTLKISRVEAEDVGVYYCFQGSHIPFTFGQGTKLEIKR | 2.97
14 | H9/L29 (antibody, human IgG1, kappa) heavy: not shown light: DVVMTQSPLSLPVTLGQPASISCRSSQNIVHTNGNTYLEWYQQKPGKAPELLIYKVSNRFSGVPDRFSGSGSGTDFTLKISRVEAEDVGVYYCFQGSHIPFTFGRGTKLEIKRTVAAPSVFIFPPSDEQLKSGTASVVCLLNNFYPREAKVQWKVDNALQSGNSQESVTEQDSKDSTYSLSSTLTLSKADYEKHKVYACEVTHQGLSSPVTKSFNRGEC | 3.49
15 | H9/L10 (antibody, human IgG1, kappa) heavy: not shown light: DVVMTQSPLSLPVTLGQPASISCRSSQNIVHTNGNTYLEWYQQKPGKAPELLIYKVSNRFSGVPDRFSGSGSGTDFTLKISRVEAEDVGVYYCFQGSHIPFTFGQGTKVEIERTVAAPSVFIFPPSDEQLKSGTASVVCLLNNFYPREAKVQWKVDNALQSGNSQESVTEQDSKDSTYSLSSTLTLSKADYEKHKVYACEVTHQGLSSPVTKSFNRGEC | 2.92
16 | H9/L34 (antibody, human IgG1, kappa) heavy: not shown light: DVVMTQSPLSLPVTLGRPASISCRSSRNIVHTNGNTYLEWYQQKPGKAPKLLIYKVSNRFSGVPDRFSGSGSGTDFTLKISRVEAEDVGVYYCFQGSHIPFTFGQGTKLEIKRTVAAPSVFIFPPSDEQLKSGTASVVCLLNNFYPREAKVQWKVDNALQSGNSQESVTEQDSKDSTYSLSSTLTLSKADYEKHKVYACEVTHQGLSSPVTKSFNRGEC | 2.8
17 | H9/L35 (antibody, human IgG1, kappa) heavy: not shown light: DVVMTQSPLSLPVTLGQPASISCRSSRNIVHTNGNTYLEWYQQKPGKAPKLLIYKVSNRFSGVPDRFSGSGSGTDFTLKISRVEAEDVGVYYCFQGSHIPFTFGRGTKLEIKRTVAAPSVFIFPPSDEQLKSGTASVVCLLNNFYPREAKVQWKVDNALQSGNSQESVTEQDSKDSTYSLSSTLTLSKADYEKHKVYACEVTHQGLSSPVTKSFNRGEC | 2.37
18 | H17/L0 (antibody, human IgG1, kappa, V domains shown) VH: QVTLKESGPVLVKPTETLTLTCTVSGFSLSDFGVDWVRQAPGKGLEWMGVIWGGGSTNYNSALKSRLTISKDNSKSQVVLTMTNMDPVDTATYYCAGEGSKYGAWFAYWGQGTLVTVSS VL: DVVMTQSPLSLPVTLGQPASISCRSSQNIVHTNGNTYLEWYQQKPGKAPELLIYKVSNRFSGVPDRFSGSGSGTDFTLKISRVEAEDVGVYYCFQGSHIPFTFGQGTKLEIKR | 3.46
19 | H9/L28 (antibody, human IgG1, kappa, V domains shown) VH: QVTLKESGPVLVKPTETLTLTCTVSGFSLSSFGVDWVRQAPGKGLEWMGVIWGGGSTNYNSALKSRLTISKDNSKSQVVLTMTNMDPVDTATYYCAGEGSKYGAWFAYWGQGTLVTVSS VL: DVVMTQSPLSLPVTLGQPASISCRSSQNIVHTNGNTYLEWYQQKPGKAPKLLIYKVSNRFSGVPDRFSGSGSGTDFTLKISRVEAEDVGVYYCFQGSHIPFTFGQGTKLEIKR | 3.06
